Data reported in the supplement of paper PMC10567573.

B1: SPDEF (parent)
chain: FQELAGKELCAMSEEQFRQRSPLG

Variants of: B1
Test: protein stability index of a GFP-peptide fusion (GPS, HEK-293T) (PSI 1-6); higher = more stable
Settings: c terminus: a fixed tail appended
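Further: lentivirally expressed fusions sorted by FACS into six bins by GFP to DsRed ratio, PSI derived from sequencing read proportions per bin multiplied by bin number.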

Protein stability index of substitutions, site by site:
E15: C 2.19; Y 2.04; N 2.13; H 2.01; G 2.3
P22: Y 2.2; V 2.87; G 2.61; F 2.43; Q 2.74; T 2.63; E 3.15; S 2.92
A11: L 2.23; I 1.87; H 3.35
C10: D 4.38; Y 2.4; H 3.12; L 2.79; F 2; P 4.32; E 3.9
S13: L 1.71; G 2.57; T 2.69; M 2.45; V 3.05; D 2.89; Q 2.62; P 3.18
M12: A 3.57; W 1.79; F 2.47; L 2.72; N 3.3; Y 2.88
R20: L 2.55; M 2.1; W 2.52; D 3.47; K 2.51; E 3.71; G 2.49
L23: V 3.09; W 1.69; E 3.48; G 3.31; S 3.16; F 2.78; M 2.84; A 3.02
L4: D 4.38; E 4.48; F 2.84; S 4.01; Y 2.61; M 2.6; W 2.4
Q16: C 2.86; G 2.74; V 2.28; L 2.2; H 2.43; W 1.92; M 2.23; A 3.12; Y 2.16
K7: I 1.81; Y 1.58; R 2.3; E 3.66; H 2.86; V 2.61; Q 4; A 2.58
A5: H 2.73; T 2.46; I 2.47; Y 2.6; E 3.83; F 2.5; M 2.58
L9: S 3.23; M 3.41; T 3.69; C 2.63; F 2.56; W 2.8; H 3.9
F1: I 3.88; N 4.72; H 4.02; P 4.49
E14: Q 2.63; Y 2.49; V 2.07; C 2.46; H 2.47; A 2.28; L 2.3; I 1.8; G 2.21
E8: W 2.87; L 2.5; S 2.12; V 2.52; Q 2.25; D 2.79; H 1.77
E3: H 3.36; W 1.72; C 2.48; P 2.64; N 3.09; Q 3.45; F 1.95; D 2.1
Q19: D 2.87; V 2.42; Y 2.3; W 1.59; K 2.74; H 2.93; I 2.39
G24: T 2.76; M 2.78; K 3.44; S 2.74; V 2.43; N 2.72
Q2: G 2.44; M 2.65; L 2.12; E 4.17; S 2.55; V 2.73; C 2.36; K 3.61; N 4.11
F17: T 3.63; E 3.85; N 3.02; Q 3.34; A 3.37; R 2.97; M 2.66; W 2.67; G 3.58
R18: I 2.73; S 2.82; F 2.21; G 2.9; E 3.31; V 2.8; Q 2.81
G6: I 2.69; Q 2.68; R 2.58; N 3.4; Y 1.9; A 2.4; S 2.53
S21: I 2.43; N 2.6; W 2.4; Q 2.98
